B1: Pistol ribozyme (parent)
chain: GGGUCGUUGUUCCAUAAUCGCGUGGAUAUGGCACGCAAGUUUCUACCGGGCACCGUAAAUGUCCGACUGGAGCCGUUCGGGCGGCUAUAAACAGACCUCAGGCCCGAAGCGUGGCGGCACCUGCCGCCGGUGGUAAAAAAGAUCGGAAGAGCACACGUCU

Variants of: B1
Test: aptazyme ON/OFF ratio, guanine; higher = stronger switching; co-transcriptional cleavage with and without guanine

| Variant | aptazyme ON/OFF ratio |
| --- | --- |
| GGGUCGGCCAAUCAUAAUCGCGUGGAUAUGGCACGCAAGUUUCUACCGGGCACCGUAAAUGUCCGACUGGAGCCGUUCGGGCGGCUAUAAACAGACCUCAGGCCCGAAGCGUGGCGGCACCUGCCGCCGGUGGUAAAAAAGAUCGGAAGAGCACACGUCU | 1.16 |
| GGGUCGGCCAAGCAUAAUCGCGUGGAUAUGGCACGCAAGUUUCUACCGGGCACCGUAAAUGUCCGACUGGAGCCGUUCGGGCGGCUAUAAACAGACCUCAGGCCCGAAGCGUGGCGGCACCUGCCGCCGGUGGUAAAAAAGAUCGGAAGAGCACACGUCU | 1.19 |
| GGGUCGGCCAAACAUAAUCGCGUGGAUAUGGCACGCAAGUUUCUACCGGGCACCGUAAAUGUCCGACUGGAGCCGUUCGGGCGGCUAUAAACAGACCUCAGGCCCGAAGCGUGGCGGCACCUGCCGCCGGUGGUAAAAAAGAUCGGAAGAGCACACGUCU | 1.19 |
| GGGUCGGCCAAGUAUAAUCGCGUGGAUAUGGCACGCAAGUUUCUACCGGGCACCGUAAAUGUCCGACUGGAGCCGUUCGGGCGGCUAUAAACAGACCUCAGGCCCGAAGCGUGGCGGCACCUGCCGCCGGUGGUAAAAAAGAUCGGAAGAGCACACGUCU | 1.13 |
| GGGUCGGCCAAGAAUAAUCGCGUGGAUAUGGCACGCAAGUUUCUACCGGGCACCGUAAAUGUCCGACUGGAGCCGUUCGGGCGGCUAUAAACAGACCUCAGGCCCGAAGCGUGGCGGCACCUGCCGCCGGUGGUAAAAAAGAUCGGAAGAGCACACGUCU | 1.1 |
| GGGUCGGCCAAGGAUAAUCGCGUGGAUAUGGCACGCAAGUUUCUACCGGGCACCGUAAAUGUCCGACUGGAGCCGUUCGGGCGGCUAUAAACAGACCUCAGGCCCGAAGCGUGGCGGCACCUGCCGCCGGUGGUAAAAAAGAUCGGAAGAGCACACGUCU | 1.11 |
| GGGUCGGCCAAAUAUAAUCGCGUGGAUAUGGCACGCAAGUUUCUACCGGGCACCGUAAAUGUCCGACUGGAGCCGUUCGGGCGGCUAUAAACAGACCUCAGGCCCGAAGCGUGGCGGCACCUGCCGCCGGUGGUAAAAAAGAUCGGAAGAGCACACGUCU | 1.11 |
| GGGUCGGCCAAAAAUAAUCGCGUGGAUAUGGCACGCAAGUUUCUACCGGGCACCGUAAAUGUCCGACUGGAGCCGUUCGGGCGGCUAUAAACAGACCUCAGGCCCGAAGCGUGGCGGCACCUGCCGCCGGUGGUAAAAAAGAUCGGAAGAGCACACGUCU | 1.12 |
| GGGUCGGCCAAAGAUAAUCGCGUGGAUAUGGCACGCAAGUUUCUACCGGGCACCGUAAAUGUCCGACUGGAGCCGUUCGGGCGGCUAUAAACAGACCUCAGGCCCGAAGCGUGGCGGCACCUGCCGCCGGUGGUAAAAAAGAUCGGAAGAGCACACGUCU | 1.09 |
| GGGUCGGCCAACCAUAAUCGCGUGGAUAUGGCACGCAAGUUUCUACCGGGCACCGUAAAUGUCCGACUGGAGCCGUUCGGGCGGCUAUAAACAGACCUCAGGCCCGAAGCGUGGCGGCACCUGCCGCCGGUGGUAAAAAAGAUCGGAAGAGCACACGUCU | 3.4 |
| GGGUCGGCCAUCGAUAAUCGCGUGGAUAUGGCACGCAAGUUUCUACCGGGCACCGUAAAUGUCCGACUGGAGCCGUUCGGGCGGCUAUAAACAGACCUCAGGCCCGAAGCGUGGCGGCACCUGCCGCCGGUGGUAAAAAAGAUCGGAAGAGCACACGUCU | 1.07 |
| GGGUCGGCCAUCUAUAAUCGCGUGGAUAUGGCACGCAAGUUUCUACCGGGCACCGUAAAUGUCCGACUGGAGCCGUUCGGGCGGCUAUAAACAGACCUCAGGCCCGAAGCGUGGCGGCACCUGCCGCCGGUGGUAAAAAAGAUCGGAAGAGCACACGUCU | 1.07 |
| GGGUCGGCCAUCAAUAAUCGCGUGGAUAUGGCACGCAAGUUUCUACCGGGCACCGUAAAUGUCCGACUGGAGCCGUUCGGGCGGCUAUAAACAGACCUCAGGCCCGAAGCGUGGCGGCACCUGCCGCCGGUGGUAAAAAAGAUCGGAAGAGCACACGUCU | 1.08 |
| GGGUCGGCCAUGUAUAAUCGCGUGGAUAUGGCACGCAAGUUUCUACCGGGCACCGUAAAUGUCCGACUGGAGCCGUUCGGGCGGCUAUAAACAGACCUCAGGCCCGAAGCGUGGCGGCACCUGCCGCCGGUGGUAAAAAAGAUCGGAAGAGCACACGUCU | 1.09 |
| GGGUCGGCCAUUAAUAAUCGCGUGGAUAUGGCACGCAAGUUUCUACCGGGCACCGUAAAUGUCCGACUGGAGCCGUUCGGGCGGCUAUAAACAGACCUCAGGCCCGAAGCGUGGCGGCACCUGCCGCCGGUGGUAAAAAAGAUCGGAAGAGCACACGUCU | 1.03 |
| GGGUCGGCCAUUUAUAAUCGCGUGGAUAUGGCACGCAAGUUUCUACCGGGCACCGUAAAUGUCCGACUGGAGCCGUUCGGGCGGCUAUAAACAGACCUCAGGCCCGAAGCGUGGCGGCACCUGCCGCCGGUGGUAAAAAAGAUCGGAAGAGCACACGUCU | 1.04 |
| GGGUCGGCCAUUGAUAAUCGCGUGGAUAUGGCACGCAAGUUUCUACCGGGCACCGUAAAUGUCCGACUGGAGCCGUUCGGGCGGCUAUAAACAGACCUCAGGCCCGAAGCGUGGCGGCACCUGCCGCCGGUGGUAAAAAAGAUCGGAAGAGCACACGUCU | 1.01 |
| GGGUCGGCCAUUCAUAAUCGCGUGGAUAUGGCACGCAAGUUUCUACCGGGCACCGUAAAUGUCCGACUGGAGCCGUUCGGGCGGCUAUAAACAGACCUCAGGCCCGAAGCGUGGCGGCACCUGCCGCCGGUGGUAAAAAAGAUCGGAAGAGCACACGUCU | 1.06 |

Reference: the RNAGym collection of RNA variant scans (doi:10.1021/acssynbio.7b00057)
